B1: BRCT domain of MtbLigA, His-tagged (domain or fragment)
chain: SVPRTLAGLTIVVTGSLTGFSRDDAKEAIVARGGKAAGSVSKKTNYVVAGDSPGSKYDKAVELGVPILDEDGFRRLLADGPASRT
B2: GST-tagged MtbXthA (enzyme)
chain: MPDGTIDGGHPQRPASPRLRSPLLRLATWNVNSIRTRLDRVLDWLGRADVDVLAMQETKCPDGQFPALPLFELGYDVAHVGFDQWNGVAIASRVGLDDVRVGFDGQPSWSGKPEVAATTEARALGATCGGIRVWSLYVPNGRALDDPHYTYKLDWLAALRDTAEGWLRDDPAAPIALMGDWNIAPTDDDVWSTEFFAGCTHVSEPERKAFNAIVDAQFTDVVRPFTPGPGVYTYWDYTQLRFPKKQGMRIDFILGSPALAARVMDAQIVREERKGKAPSDHAPVLVDLHAG

Experiments:
GST-tagged MtbXthA = molecular target: B2; experiment: SPR
[1] = molecular target: B1; experiment: ITC
[2] = molecular target: Full-length His-tagged MtbLigA (M. tuberculosis, UniProt P9WNV1 1-691); experiment: SPR

| Binder | Kd [1] [nM] | other results |
| --- | --- | --- |
| B1 | – | Kd (GST-tagged MtbXthA): 71.4 nM |
| DGQPSWSGKP [DGQ peptide (MtbXthA 104-113)] | 2470 | – |
| YDVAHVGFD [YDV peptide (MtbXthA 75-83)] | 88500 | – |
| B2 | – | Kd [2]: 67.7 nM |
